In PMC8786284, “Serine acetyltransferase from Neisseria gonorrhoeae; structural and biochemical basis of inhibition” (Biochemical Journal, 2022):

Experiments:
[1] = target: T1, Serine acetyltransferase (NgSAT) (Neisseria gonorrhoeae, UniProt Q5F6X0); assay: biochemical
T1 construct: gene NGO_1423; full-length, N-terminal His-tag, hexamer

[2] = substrate: N[C@@H](CO)C(=O)O; assay: purified protein; format: biochemical, Neisseria gonorrhoeae; conditions: active site between adjacent monomers; Asp96, Asp161, His162, Arg196, His197
[3] = target: the molecule itself; assay: SEC-SAXS; Superdex 200 5/150 in line with SAXS, co-flow; 50 mM Tris pH 8.0, 100 mM NaCl, without or with 50 µM L-cysteine; 25°C; mass from Porod volume and P(r) analysis
[4] = substrate: CC(=O)SCCNC(=O)CCNC(=O)[C@H](O)C(C)(C)COP(=O)(O)OP(=O)(O)OC[C@H]1O[C@@H](n2cnc3c(N)ncnc32)[C@H](O)[C@@H]1OP(=O)(O)O; assay: Michaelis-Menten kinetics (KM) with purified enzyme; format: biochemical, Neisseria gonorrhoeae
[5] = target: the molecule itself; assay: SEC; Enrich 650 analytical gel filtration column calibrated with Gel Filtration Standards (Bio-Rad); 50 mM Tris pH 8.0, 100 mM NaCl; oligomeric state of NgSAT

CC(C)(COP(=O)(O)OP(=O)(O)OC[C@H]1O[C@@H](n2cnc3c(N)ncnc32)[C@H](O)[C@@H]1OP(=O)(O)O)[C@@H](O)C(=O)NCCC(=O)NCCS [coenzyme A]
IC50 [1]: 573 ± 11 µM

B1: Neisseria gonorrhoeae serine acetyltransferase (enzyme, Neisseria gonorrhoeae MS11, UniProt Q5F6X0 1-272, looked up)
chain: MKKNHLNTTGFDLWHTIREETAAAAAAEPMLASFLHQTVLRHESLGSVLAYHLSSKLGSPIMDVRALFEIYQQALGSDTQISKCVEADLKAIYERDPACDEYSLPLLYFKGFHAIQAHRINHRLYLDGRKTLAYFLQNRMSEVFGVDIHPAARLGYGLMLDHATGFVAGETAVLGNNISILHGVTLGGSGKEGGDRHPKIGDGVMIGANASILGNIRIGSNAKIGAGSVVVSDVPPSITVVGVPAKPVARSLKTPSADMDQNIQFAEIDFMI
notes: 272-residue polypeptide (N-terminal domain 1-144, LbetaH domain 145-272) with an uncleaved 21-residue N-terminal histidine tag; monomer with tag 31.6 kDa; Hexamer (dimer of trimers); also called NgSAT; SAT; source: E. coli BL21 (DE3), purified (HisTrap IMAC, gel filtration); not shown: His-tag, N-terminal, kept
Km [2]: 1.21 ± 0.16 mM
kcat [2]: 1440 ± 41 s⁻¹
kcat/Km [2]: 1.19e+06 M⁻¹ s⁻¹
stoichiometry N [3]: 6.1 monomers per structure
Km [4]: 0.149 ± 0.05 mM
kcat [4]: 1180 ± 111 s⁻¹
kcat/Km [4]: 7.89e+06 M⁻¹ s⁻¹
stoichiometry N [5]: 6
